Results: publication PMC8034621

Experiments:
[1] = target: biotinylated 4-heptad RNA polymerase II CTD peptide, Ser5 phosphorylated on all heptads
[2] = target: biotinylated 4-heptad RNA polymerase II CTD peptide, Ser2 phosphorylated on all heptads; assay: pull-down on streptavidin-coupled Dynabeads, SDS-PAGE stained with Coomassie Blue, band quantification; settings: biotinylated peptides of four CTD heptads; triplicate; parent: est. 1.0; read off a plot
[3] = target: biotinylated 4-heptad RNA polymerase II CTD peptide, Ser5 phosphorylated on all heptads; assay: as above; settings: biotinylated peptides of four CTD heptads; triplicate; parent: est. 1.0; read off a plot
[4] = target: RNA polymerase II CTD CTD (UniProt P24928); settings: cited from earlier work
Chain of RNA polymerase II CTD CTD (P24928 1593-1970 A1835T): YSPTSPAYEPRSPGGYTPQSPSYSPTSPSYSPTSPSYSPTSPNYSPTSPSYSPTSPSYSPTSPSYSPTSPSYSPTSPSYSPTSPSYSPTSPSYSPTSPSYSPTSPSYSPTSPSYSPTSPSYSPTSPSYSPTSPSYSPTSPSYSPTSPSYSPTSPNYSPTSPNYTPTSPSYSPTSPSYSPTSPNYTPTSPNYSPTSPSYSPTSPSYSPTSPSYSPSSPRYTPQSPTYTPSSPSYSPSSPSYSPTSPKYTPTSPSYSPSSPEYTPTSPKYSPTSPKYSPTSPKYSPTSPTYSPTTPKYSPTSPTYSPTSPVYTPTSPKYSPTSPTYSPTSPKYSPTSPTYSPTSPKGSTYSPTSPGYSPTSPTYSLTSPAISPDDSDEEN

Chain of human capping enzyme (CE/RNGTT) GTase with the disordered flanking regions (211–597), wild-type, O60942 R330A; K331A; R386A (O60942 211-597 R330A/K331A/R386A): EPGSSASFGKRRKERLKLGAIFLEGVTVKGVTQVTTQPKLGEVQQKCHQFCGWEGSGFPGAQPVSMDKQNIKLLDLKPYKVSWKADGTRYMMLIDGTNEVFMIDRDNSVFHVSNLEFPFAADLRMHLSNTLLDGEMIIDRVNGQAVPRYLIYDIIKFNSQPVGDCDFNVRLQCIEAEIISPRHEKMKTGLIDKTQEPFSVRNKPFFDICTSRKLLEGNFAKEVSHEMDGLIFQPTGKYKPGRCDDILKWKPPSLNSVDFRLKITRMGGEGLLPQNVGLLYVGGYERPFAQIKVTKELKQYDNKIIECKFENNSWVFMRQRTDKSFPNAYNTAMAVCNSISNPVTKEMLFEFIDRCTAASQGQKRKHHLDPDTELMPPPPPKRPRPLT
Chain of human capping enzyme (CE/RNGTT) GTase with the disordered flanking regions (211–597), wild-type, O60942 R330A; K331A; R386A; R358A; K403A; R411A (O60942 211-597 R330A/K331A/R358A/R386A/K403A/R411A): as the sequence (O60942 211-597 R330A/K331A/R386A) above, with R148A, K193A, R201A counted along it
Chain of human capping enzyme (CE/RNGTT) GTase with the disordered flanking regions (211–597), wild-type, O60942 R358A; K403A; R411A (O60942 211-597 R358A/K403A/R411A): as the sequence (O60942 211-597 R330A/K331A/R386A) above, with A120R, A121K, R148A, A176R, K193A, R201A counted along it
Chain of mRNA capping enzyme GTase (O60942 229-597): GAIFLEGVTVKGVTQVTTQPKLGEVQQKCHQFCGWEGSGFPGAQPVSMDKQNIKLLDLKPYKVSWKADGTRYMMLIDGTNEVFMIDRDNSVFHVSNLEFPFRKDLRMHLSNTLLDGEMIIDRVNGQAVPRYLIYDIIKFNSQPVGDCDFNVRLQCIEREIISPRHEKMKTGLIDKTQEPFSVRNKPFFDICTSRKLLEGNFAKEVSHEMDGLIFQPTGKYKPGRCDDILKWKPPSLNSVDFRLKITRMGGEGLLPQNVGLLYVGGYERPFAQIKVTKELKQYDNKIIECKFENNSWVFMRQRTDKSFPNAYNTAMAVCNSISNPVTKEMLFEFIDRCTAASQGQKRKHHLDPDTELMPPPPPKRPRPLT
Chain of human capping enzyme (CE/RNGTT) GTase with the disordered flanking regions (211–597), wild-type (O60942 211-597): as the sequence (O60942 211-597 R330A/K331A/R386A) above, with A120R, A121K, A176R counted along it

ratio to parent [2] | ratio to parent [3] | Substance | further results
 |  | human CE GTase (211–597) ΔCDS1 (R330A/K331A/R386A) (from UniProt O60942 211-597) (domain or fragment) | guanylyltransferase activity (32P-GMP bound to the GTase), 0-10 μM 4-heptad pSer5 CTD peptide, relative to basal activity [1]: 1.4 fold
 |  | human capping enzyme (CE/RNGTT) GTase with the disordered flanking regions (211–597), wild-type (from UniProt O60942 211-597) (domain or fragment) | guanylyltransferase activity (32P-GMP bound to the GTase), 0-10 μM 4-heptad pSer5 CTD peptide, relative to basal WT activity [1]: 2.2 fold
0.2 | 0.43 | human capping enzyme (CE/RNGTT) GTase with the disordered flanking regions (211–597), wild-type, O60942 R330A; K331A; R386A | 
0.035 | 0.03 | human capping enzyme (CE/RNGTT) GTase with the disordered flanking regions (211–597), wild-type, O60942 R330A; K331A; R386A; R358A; K403A; R411A | 
0.12 | 0.18 | human capping enzyme (CE/RNGTT) GTase with the disordered flanking regions (211–597), wild-type, O60942 R358A; K403A; R411A | 
 |  | mRNA capping enzyme GTase (from UniProt O60942) | Kd [4]: 139 µM
